T1: monkey LAG3 (mfLAG3) expressed on HEK293 cells (cynomolgus monkey, UniProt P18627 24-525 (human entry))
T1 construct: also called HEK293/mfLAG3; HEK293-mfLAG3
T1 chain: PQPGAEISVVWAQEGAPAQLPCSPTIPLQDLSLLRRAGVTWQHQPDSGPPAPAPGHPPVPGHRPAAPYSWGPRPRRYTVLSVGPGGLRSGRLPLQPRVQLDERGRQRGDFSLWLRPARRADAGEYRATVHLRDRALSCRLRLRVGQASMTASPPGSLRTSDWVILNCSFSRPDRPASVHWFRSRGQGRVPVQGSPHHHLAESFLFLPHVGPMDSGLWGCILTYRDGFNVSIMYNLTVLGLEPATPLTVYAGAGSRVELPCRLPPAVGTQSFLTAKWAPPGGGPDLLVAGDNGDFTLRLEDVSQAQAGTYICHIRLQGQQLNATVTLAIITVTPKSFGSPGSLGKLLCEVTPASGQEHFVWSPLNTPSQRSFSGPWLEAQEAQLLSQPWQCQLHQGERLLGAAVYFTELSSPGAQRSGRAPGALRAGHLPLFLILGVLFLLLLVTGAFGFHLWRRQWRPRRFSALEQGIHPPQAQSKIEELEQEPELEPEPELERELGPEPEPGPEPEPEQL


What was measured:
[1] = molecular target: T1, monkey LAG3 (mfLAG3) expressed on …; test: electrochemiluminescence cell binding, HEK293-mfLAG3
Procedure: (§1) To investigate the ability of a panel of anti-LAG3 monoclonal antibodies to bind cell-surface expressed LAG3, an in vitro binding assay utilizing human and monkey LAG3 expressing cell lines in an electrochemiluminescence based detection platform [Meso Scale Diagnostics, Rockville, Md.—(MSD)] was developed.
(§2) Experiments were carried out according to following procedure. Cells from the three cell lines described above were rinsed once in 1×PBS buffer without Ca²⁺/Mg²⁺ followed by 10-minute incubation at 37° C. with Enzyme Free Cell Dissociation Solution. […] Approximately 10,000 cells per well in the cell-washing buffer were seeded into the 96-well carbon electrode plates (MULTI-ARRAY high bind plate, MSD) and incubated for 1 hour at 37° C. to allow the cells to adhere. Nonspecific binding sites were blocked by 2% BSA (w/v) in PBS for 1 hour at room temperature. […] The plates were then washed to remove the unbound antibodies using an AquaMax2000 plate washer (MDS Analytical Technologies). The plate-bound antibodies were detected with a SULFO-TAG™-conjugated anti-human IgG antibody (MSD) for 1 hour at room temperature. After washes, the plates were developed with the Read Buffer (MSD) according to manufacturer's recommended procedure and the luminescent signals were recorded with a SECTOR Imager 6000 (MSD) instrument. The direct binding signals (in relative light units—RLU) were analyzed as a function of the antibody concentration and the data were fitted with a sigmoidal (four-parameter logistic) dose-response model using Graph Pad Prism™ software. The potency of each antibody was determined by calculating EC₅₀.

[2] = molecular target: T1, monkey LAG3 (mfLAG3) expressed on …; test: electrochemiluminescence cell binding
Procedure: as §1, §2

[3] = molecular target: T1, monkey LAG3 (mfLAG3) expressed on …; test: flow cytometry, HEK293/mfLAG3 cells
Procedure: The serially diluted antibodies were added to the cell suspension and incubated for 15-30 minutes on ice. The cells were centrifuged and pellets were washed with staining buffer to remove unbound antibodies. […] The cells were centrifuged and pellets were washed with staining buffer to remove unbound secondary F(ab′)2 and fixed overnight with a 1:1 dilution of Cytofix (BD Biosciences, #554655) and staining buffer. Following day, fixed cells were centrifuged and pellets were washed with staining buffer, resuspended and filtered. Fluorescence measurements were acquired on HyperCyt® cytometer and analyzed in ForeCyt™ (IntelliCyt; Albuquerque, N. Mex.) to determine the mean fluorescence intensities (MFI). The EC₅₀ values were calculated from a four-parameter logistic equation over an 11-point response curve using GraphPad Prism. EC₅₀ was defined as the concentration of antibody at which 50% of maximal binding signal is detected. The MFI ratio for each antibody was calculated by dividing the MFI at 100 nM by MFI at 0 nM of antibody concentration.

Binder	EC50 [1]	Ratio of 100 nM antibody binding HEK293-mfLAG3 to HEK293 cells [2]	EC50 [3]	Ratio of MFI (100 nM/0 nM) [3]	binding result [3]
H4H17819P (antibody, human IgG4, V domains shown, H4H = human IgG4 Fc with S108P hinge mutation) VH: EVQLVESGGGLVQPGGSLRLSCVASGFTFSLYAMTWVRQVPGKGLEWVSTISGSGGGTYYTDSVKGRFTISRDNSKNTLYLQMNSLRADDTAVFYCTKESTTGTYSYFYGMDVWGQGTTVTVSS VL: DIQMTQSPSSLSASVGDRVTITCRASQTISSYLNWYQQKPGKAPKLLIYAASSLQSGVPSRFSGSGSGTDFTLTLSGLQPEDFATYYCQQSYSTPLTFGGGTKVEIK	40.2 nM	8.3	> 10 nM	12.1	–
H4H15462P (antibody, human IgG4, V domains shown, H4H = human IgG4 Fc with S108P hinge mutation) VH: QVQLVQSGAEVKKPGASVKVSCKASGYTFTNYYIHWVRQAPGQGLDWMGIINPGGGNTNYAQKFLGRVTMTRDTSTTTVYMELSSLRSEDTAIYYCARENWNSYFDNWGQGTLVTVSS VL: not shown	–	–	–	2.9	no binding (tested: 100 nM)
H4H15498P2 (antibody, human IgG4, V domains shown, H4H = human IgG4 Fc with S108P hinge mutation) VH: EVQLVESGGGLVQPGGSLRLSCAASGFTFTSYAMTWVRQAPGKGLEWVSDISGSGGRTYYADSVKGRFTISRDNSKNMLYLQMNILRAEDTAVYHCAKGTGQQVDLYNYYYALDVWGQGTTVTVSS VL: not shown	9.68 nM	13.8	> 10 nM	12.8	–
H4H15479P (antibody, human IgG4, V domains shown) VH: QVQLQQWGAGLLNPSETLSLTCAVYGGAFSDYYWNWIRQPPGKGLEWIGEINHRGSTNYNPSLKSRVTISVDTSKNQFSLRMSSVTAADAAVYYCARGEDYDIWNGYYQEKWGQGTLVTVSS VL: EIVLTQSPATLSLSPGERATLSCRASQSISTYLAWYQQKPGQAPRLLIYDASKRATGIPARFSGSGSGTDFTLTISSLEPEDFVVYYCHQRSNWPLTFGGGTKVEIK	73.9 nM	2.1	1.35 nM	21.5	–
H4H15483P (antibody, human IgG4, V domains shown, H4H = human IgG4 Fc with S108P hinge mutation) VH: QVQLQQWGAGLLPPSETLSLICAVYGGSFSGYYWSWIRQPPGKGLEWIGEINHRGSTNYNPSLKSRATISVDTSKNQFSLKLSSVTAADTAVYYCSRGEDYYDSSGYSYYFDYWGQGTLVTVSS VL: EIVLTQSPATLSLSPGERATLSCRASQSVSSYLAWYQQKPGQAPRLLIYDASNRATGIPARFSGSGSGTDFTLTISSLEPEDFAVYYCQQRSNWPLTFGGGTKVEIK	–	–	> 10 nM	8.8	–
H4H17826P2 (antibody, human IgG4, V domains shown, H4H = human IgG4 Fc with S108P hinge mutation) VH: EVQLVESGGGLVQPGGSLRLSCAASGFTFSSYEMNWVRQAPGKGLEWVSYISSSGNTKDYAGSVKGRVTISRDNAKNLLYLQMNSLRAEDTAVYHCARDGGHYDILTGSMSYYYYALDVWGQGTTVTVSS VL: not shown	7.85 nM	4.7	> 10 nM	14.3	–

Results, then the binder that gave them:

EC50 [1]	Ratio of 100 nM antibody binding HEK293-mfLAG3 to HEK293 cells [2]	EC50 [3]	Ratio of MFI (100 nM/0 nM) [3]	binding result [3]	Binder
–	–	–	1	no binding (tested: 100 nM)	H4sH15462P (antibody, V domains shown, H4sH = human IgG4 Fc with 2 or more amino acid changes as disclosed in US20140243504) VH: QVQLVQSGAEVKKPGASVKVSCKASGYTFTNYYIHWVRQAPGQGLDWMGIINPGGGNTNYAQKFLGRVTMTRDTSTTTVYMELSSLRSEDTAIYYCARENWNSYFDNWGQGTLVTVSS VL: not shown
20 nM	32.7	> 10 nM	12.1	–	H4sH15498P2 (antibody, V domains shown, H4sH = human IgG4 Fc with 2 or more amino acid changes as disclosed in US20140243504) VH: EVQLVESGGGLVQPGGSLRLSCAASGFTFTSYAMTWVRQAPGKGLEWVSDISGSGGRTYYADSVKGRFTISRDNSKNMLYLQMNILRAEDTAVYHCAKGTGQQVDLYNYYYALDVWGQGTTVTVSS VL: not shown
13.1 nM	6	–	–	–	H4H17828P2 (antibody, human IgG4, V domains shown, H4H = human IgG4 Fc with S108P hinge mutation) VH: EVQLVESGGGLVQPGGSLRLSCAASGFTFKTYAMSWVRQAPGRGLEWVSGISGSGSTSYYADSVKGRFTISRDNYKKTLSLQMNSLRAEDTAVYYCALDIMATVGGLFNNWGQGTLVTVSS VL: not shown
